Assay results from the supplement of paper PMC10567573.

B1: IKZF1 (parent)
chain: HIKLHSGEKPFKCHLCNYACRRRD

Variants of: B1
Assay: protein stability index of a GFP-peptide fusion (GPS, HEK-293T) (PSI 1-6); higher = more stable
Conditions: c terminus: a fixed tail appended
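Also: lentivirally expressed fusions sorted by FACS into six bins by GFP to DsRed ratio, PSI derived from sequencing read proportions per bin multiplied by bin number.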

Protein stability index: each site, then its substitutions
K12: C 2.32, N 1.67, T 1.68, D 1.68, S 1.95, E 2.29, Y 2.13, G 2.38, L 1.82, W 1.59, M 2.02, Q 2.28, R 2.23, H 1.7, A 1.77, V 2.21, I 1.78, F 2.25, P 1.78
Y18: K 1.99, I 1.48, P 1.94, F 2.07, H 1.82, G 2.84, S 1.58, A 2.04, Q 2.67, N 1.88, C 2.04, E 2.02, M 2.17, T 1.54, R 2.15, L 2.23, W 1.16, D 2.7
C16: Q 2.12, H 2.29, A 2.04, N 2.8, T 2.8, P 2.2, K 2.91, S 2.96, D 2.98, F 2.05, G 3.03, M 2.04, W 2.14, V 1.81, R 2.81, Y 1.88, I 2.35, L 2.26, E 3.02
L15: I 2.44, G 2.43, Y 1.63, N 2.27, Q 2.47, R 2.3, W 2.44, P 2.64, A 2.28, F 1.89, M 1.36, K 2.68, D 1.74, S 2.11, V 1.78, E 2.5, C 2.66, T 2.92, H 2.14
F11: M 2.21, V 1.46, K 2.6, Y 1.52, N 1.77, L 2.12, P 1.67, I 1.46, C 1.83, R 1.74, G 2.06, Q 2.41, E 2.17, S 1.64, T 1.85, D 2.15, H 2.2
C13: A 2.28, T 2.91, L 1.85, E 2.58, I 2.28, G 3.04, N 3.53, D 3.34, K 3, S 2.36, P 2.97, V 2.21, M 2.15, R 2.26, H 2.79, W 2.73, F 2.01, Q 2.75, Y 1.77
H14: Y 1.45, Q 1.83, P 1.83, F 2.32, E 1.66, M 1.54, C 3.78, N 1.69, A 1.5, L 1.88, V 2.23, S 2.09, W 2.23, R 2.26, K 2.39, D 2.82, T 2.42, I 1.55, G 1.89
N17: P 1.56, F 2.79, Q 1.43, G 2.05, A 2.67, R 1.53, Y 1.52, L 2.07, W 1.62, I 2.86, T 2.12, D 1.47, C 1.3, V 2.39, H 1.98, M 1.86, S 1.97, K 1.2
A19: N 2.27, T 1.81, K 3.11, I 2.13, G 1.49, Q 1.67, Y 1.32, S 1.94, D 1.58, P 1.71, C 1.64, R 2.62, L 2, F 2.07, E 2.1, W 2.52, V 1.4, H 1.85, M 1.88
